Measurements as given in paper PMC314469, “Protein Interaction Networks by Proteome Peptide Scanning” (PLoS Biology, 2004).

T1: Yhr016c SH3 (YSC84_YEAST), P32793
T1 chain: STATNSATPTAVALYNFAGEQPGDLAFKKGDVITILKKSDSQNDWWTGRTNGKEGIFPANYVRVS

T2: Boi2 SH3 (BOI2_YEAST), P39969
T2 chain: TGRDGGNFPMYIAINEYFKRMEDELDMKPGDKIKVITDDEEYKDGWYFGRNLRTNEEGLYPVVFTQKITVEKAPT

T3: Boi1 SH3 (BOI1_YEAST), P38041
T3 chain: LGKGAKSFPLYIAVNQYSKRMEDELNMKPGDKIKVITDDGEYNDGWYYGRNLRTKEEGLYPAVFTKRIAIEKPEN

T4: Rvs167 SH3 (RV167_YEAST), P39743
T4 chain: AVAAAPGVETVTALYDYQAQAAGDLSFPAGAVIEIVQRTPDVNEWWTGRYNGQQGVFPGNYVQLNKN

T5: Yfr024 SH3 (LSB3_YEAST), P43603
T5 chain: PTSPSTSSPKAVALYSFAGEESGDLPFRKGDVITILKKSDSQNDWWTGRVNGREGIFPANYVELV

B1: YPR107C 47-60 (peptide)
chain: PRGPLSPKKHVLPI
B2: YMR089C 156-169 (peptide)
chain: PPPPPPPPKPPLND
B3: YBR060C 169-182 (peptide)
chain: PPEPATPSKKSLTT
B4: YEL043W 874-887 (peptide)
chain: PVGPKVPAKEPSPK
B5: YJR126C 341-354 (peptide)
chain: PTTPGYPSKDSDTE
B6: YNL271C 1244-1257 (peptide)
chain: PPPPPVPAKLFGES
B7: YPR171W 305-318 (peptide)
chain: PTPPSPPAKRIPRS
B8: YNL315C 113-126 (peptide)
chain: PSAPKVPFKTLDSF
B9: YOL142W 12-25 (peptide)
chain: PVDPTTPVKLGPGI
B10: YDL146W 477-490 (peptide)
chain: PPPPPPPSRKSGTP
B11: YPL084W 769-782 (peptide)
chain: PQGPGIPPRTYEAS
B12: YIL112W 218-231 (peptide)
chain: PTAPNSPIKLGRRK
B13: YGL197W 345-358 (peptide)
chain: PSNPALPKKLLNVP
B14: YGR099W 44-57 (peptide)
chain: PVYPSLPERSKVIL
B15: YLL028W 113-126 (peptide)
chain: PYPPSLPSRDLYEV
B16: YKL101W 622-635 (peptide)
chain: PQLPKSPSRYSLSR
B17: YNL068C 402-415 (peptide)
chain: PRRPNEPGKGMKWR
B18: YER132C 943-956 (peptide)
chain: PPVPKAPSRRSSSL
B19: YNL152W 329-342 (peptide)
chain: PPLPPIPTRDDMSN

Target: T1, Yhr016c SH3 (YSC84_YEAST), P32793
Assay: SPOT array

Row | Binder | normalised SPOT signal, Boehringer light units (BLU); mean over the file's lines of this peptide
1 | B1 | 204
2 | B2 | 100
3 | B3 | 66.6
4 | B4 | 48.6
5 | B5 | 25
6 | B6 | 62.5
7 | B7 | 0
8 | B8 | 176
9 | B9 | 179
10 | B10 | 2480
11 | B11 | 1710
12 | B12 | 175
13 | B13 | 87.4
14 | B14 | 21100
15 | B15 | 16000
16 | B16 | 391
17 | B17 | 181
18 | B18 | 6150
19 | B19 | 545

Target: T2, Boi2 SH3 (BOI2_YEAST), P39969
Assay: SPOT array

Row | Binder | normalised SPOT signal, Boehringer light units (BLU); mean over the file's lines of this peptide
20 | B1 | 1.8
21 | B2 | 58
22 | B3 | 26.2
23 | B4 | 5.8
24 | B5 | 27.1
25 | B6 | 37.8
26 | B7 | 134
27 | B8 | 43
28 | B9 | 21.4
29 | B10 | 50.2
30 | B11 | 59.6
31 | B12 | 68.2
32 | B13 | 78.6
33 | B14 | 34
34 | B15 | 31.1
35 | B16 | 775
36 | B17 | 49
37 | B18 | 753
38 | B19 | 37.5

Target: T3, Boi1 SH3 (BOI1_YEAST), P38041
Assay: SPOT array

Row | Binder | normalised SPOT signal, Boehringer light units (BLU); mean over the file's lines of this peptide
39 | B1 | 110
40 | B2 | 60
41 | B3 | 46.1
42 | B4 | 88
43 | B5 | 40.3
44 | B6 | 82.1
45 | B7 | 347
46 | B8 | 75.4
47 | B9 | 40.5
48 | B10 | 563
49 | B11 | 87.2
50 | B12 | 135
51 | B13 | 28.7
52 | B14 | 40.1
53 | B15 | 36.2
54 | B16 | 14300
55 | B17 | 91
56 | B18 | 1230
57 | B19 | 72.7

Target: T4, Rvs167 SH3 (RV167_YEAST), P39743
Assay: SPOT array

Row | Binder | normalised SPOT signal, Boehringer light units (BLU); mean over the file's lines of this peptide
58 | B1 | 29.4
59 | B2 | 36.6
60 | B3 | 23.8
61 | B4 | 30.7
62 | B5 | 45.8
63 | B6 | 40.5
64 | B7 | 59.3
65 | B8 | 37
66 | B9 | 19
67 | B10 | 1520
68 | B11 | 332
69 | B12 | 11.6
70 | B13 | 27.9
71 | B14 | 4000
72 | B15 | 944
73 | B16 | 391
74 | B17 | 18.5
75 | B18 | 1660
76 | B19 | 124

Target: T5, Yfr024 SH3 (LSB3_YEAST), P43603
Assay: SPOT array

Row | Binder | normalised SPOT signal, Boehringer light units (BLU); mean over the file's lines of this peptide
77 | B1 | 289
78 | B2 | 1030
79 | B3 | 41.3
80 | B4 | 381
81 | B5 | 139
82 | B6 | 2930
83 | B7 | 8640
84 | B8 | 284
85 | B9 | -0
86 | B10 | 6880
87 | B11 | 2650
88 | B12 | 547
89 | B13 | 1030
90 | B14 | 24100
91 | B15 | 8330
92 | B16 | 1610
93 | B17 | 218
94 | B18 | 29400
95 | B19 | 2050
